In patent US20250051476A1 (ABDERA THERAPEUTICS, published 2025):
Like-named read-outs stand apart in the source and are kept apart here. One block for each binder: values may come before it.

How the values were obtained:
[1] = molecular target: T1, DLL3 on cells (SHP-77, NCI-H82, HEK-DLL3, membrane proteome array cells) (human, UniProt Q9NYJ7 27-618); assay: flow cytometry on SHP-77 cells, Geomeans RL1-H
T1 construct: whole, on cells; also called hDLL3
T1 sequence (looked up): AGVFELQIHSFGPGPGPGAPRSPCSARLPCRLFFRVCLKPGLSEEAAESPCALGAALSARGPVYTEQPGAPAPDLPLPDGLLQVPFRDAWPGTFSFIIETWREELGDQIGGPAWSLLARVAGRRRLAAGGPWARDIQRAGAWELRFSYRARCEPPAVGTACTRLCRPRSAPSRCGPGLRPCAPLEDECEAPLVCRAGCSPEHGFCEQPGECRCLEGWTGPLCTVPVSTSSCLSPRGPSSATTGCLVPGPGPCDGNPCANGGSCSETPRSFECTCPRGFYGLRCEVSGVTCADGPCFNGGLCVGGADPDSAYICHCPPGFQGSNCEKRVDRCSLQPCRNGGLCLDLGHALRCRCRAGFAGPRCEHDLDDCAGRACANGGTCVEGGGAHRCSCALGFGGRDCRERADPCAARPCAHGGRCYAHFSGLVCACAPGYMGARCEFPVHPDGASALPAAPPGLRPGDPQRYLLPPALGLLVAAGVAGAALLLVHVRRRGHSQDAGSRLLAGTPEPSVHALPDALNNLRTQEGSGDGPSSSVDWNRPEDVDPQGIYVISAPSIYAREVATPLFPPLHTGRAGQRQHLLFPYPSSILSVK

[2] = molecular target: T2, DLL3 EGF1-6(mIgG2aCH2-CH3) (human); assay: Octet BLI, VHH-Fc captured on AHC sensor, DLL3 EGF1-6-mIgG2a Fc titrated
T2 construct: also called hDLL3 EGF domain construct; DLL3 EGF1-6 domain
T2 chain: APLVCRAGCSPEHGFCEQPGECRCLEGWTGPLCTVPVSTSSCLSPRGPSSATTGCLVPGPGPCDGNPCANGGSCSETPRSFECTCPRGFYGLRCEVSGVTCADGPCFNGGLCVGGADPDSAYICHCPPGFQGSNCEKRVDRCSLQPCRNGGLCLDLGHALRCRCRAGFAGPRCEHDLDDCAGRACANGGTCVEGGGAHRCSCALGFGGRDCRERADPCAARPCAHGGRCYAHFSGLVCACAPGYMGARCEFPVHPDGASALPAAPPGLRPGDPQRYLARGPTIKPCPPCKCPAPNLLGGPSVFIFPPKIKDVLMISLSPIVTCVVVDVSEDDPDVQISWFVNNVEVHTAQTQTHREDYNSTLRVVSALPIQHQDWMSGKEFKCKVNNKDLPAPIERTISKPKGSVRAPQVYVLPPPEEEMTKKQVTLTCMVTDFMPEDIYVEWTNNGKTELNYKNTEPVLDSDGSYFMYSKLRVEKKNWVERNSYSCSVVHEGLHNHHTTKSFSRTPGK

mouse DLL3 = molecular target: T3, mouse DLL3 (mouse, UniProt O88516 25-477, limits assumed); assay: ELISA
T3 construct: also called mDLL3; murine DLL3
T3 sequence (looked up): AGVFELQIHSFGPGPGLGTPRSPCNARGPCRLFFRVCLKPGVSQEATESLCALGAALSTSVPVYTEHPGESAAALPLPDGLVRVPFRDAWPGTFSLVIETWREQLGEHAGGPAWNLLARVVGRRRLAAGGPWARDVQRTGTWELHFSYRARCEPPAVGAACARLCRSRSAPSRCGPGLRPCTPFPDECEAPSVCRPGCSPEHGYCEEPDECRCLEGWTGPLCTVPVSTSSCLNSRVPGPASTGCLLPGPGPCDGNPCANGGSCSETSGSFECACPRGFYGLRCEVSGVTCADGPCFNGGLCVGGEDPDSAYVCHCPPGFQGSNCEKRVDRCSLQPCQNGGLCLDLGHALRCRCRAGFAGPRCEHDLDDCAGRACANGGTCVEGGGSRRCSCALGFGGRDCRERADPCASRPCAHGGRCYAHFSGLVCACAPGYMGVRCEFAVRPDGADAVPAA

[3] = molecular target: T1, DLL3 on cells (SHP-77, NCI-H82, …); assay: flow cytometry on SHP-77 cells, Geomeans RL1-H; remark: listed apart in the source
[4] = molecular target: T1, DLL3 on cells (SHP-77, NCI-H82, …); assay: flow cytometry on DLL3 expressing SHP-77 cells
DLL3 ECD = molecular target: T4, DLL3 ECD (human, UniProt Q9NYJ7); assay: ELISA on coated full length DLL3 ECD (2 ug/ml), anti-hIgG-Fc-HRP, A450
T4 construct: recombinant ECD aa 27-492; also called full length DLL3 ECD (aa 27-492, Cat #ab255797, Abcam); human DLL3.HIS
T4 sequence (antigen, looked up): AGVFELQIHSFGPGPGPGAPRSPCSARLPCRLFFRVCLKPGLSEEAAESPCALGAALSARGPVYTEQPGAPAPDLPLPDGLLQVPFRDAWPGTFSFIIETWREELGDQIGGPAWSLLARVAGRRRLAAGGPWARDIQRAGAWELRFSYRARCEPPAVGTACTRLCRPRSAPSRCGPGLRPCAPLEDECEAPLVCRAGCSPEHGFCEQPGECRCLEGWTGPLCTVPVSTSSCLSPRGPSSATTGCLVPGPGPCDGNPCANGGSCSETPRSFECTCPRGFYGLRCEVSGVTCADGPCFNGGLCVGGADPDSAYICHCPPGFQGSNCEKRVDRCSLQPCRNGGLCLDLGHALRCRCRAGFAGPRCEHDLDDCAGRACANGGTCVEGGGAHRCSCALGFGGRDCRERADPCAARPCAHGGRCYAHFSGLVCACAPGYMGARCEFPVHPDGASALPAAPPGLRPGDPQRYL

- EC50 (read off the curve) [1]: ~0.1 nM
- binding result [2]: no binding
- binding result (mouse DLL3): no binding
- EC50 (read off the curve) [3]: ~0.07 nM
B1: 126_zu2 (Fc fusion)
chain: QVQLVESGGGLVQPGGSLRLSCAASGITFSMYSMSWFRQAPGQGLELVAATTTFGSTNYADSVKGRFTISRDNSKNTLYLQMNSLRAEDTAVYYCAARFTSEEYWGQGTLVTVSSEPKSSDKTHTCPPCPAPEAEGAPSVFLFPPKPKDTLMISRTPEVTCVVVDVSHEDPEVKFNWYVDGVEVHNAKTKPREEQYNSTYRVVSVLTVLHQDWLNGKEYKCKVSNKALPSSIEKTISKAKGQPREPQVYTLPPSREEMTKNQVSLTCLVKGFYPSDIAVEWESNGQPENNYKTTPPVLDSDGSFFLYSKLTVDKSRWQQGNVFSCSVMHEALHNQYTQKSLSLSPG
notes: Humanized VHH-Fc

- binding result [4]: binds
B2: 126_zu1 (Fc fusion)
chain: QVQLVESGGGLVQPGGSLRLSCAASGITFSMYSMSWFRQAPGQGLEAVAATTTFGSTNYADSVKGRFTISRDNSKNTLYLQMNSLRAEDTAVYYCAARFTSEEYWGQGTLVTVSSEPKSSDKTHTCPPCPAPEAEGAPSVFLFPPKPKDTLMISRTPEVTCVVVDVSHEDPEVKFNWYVDGVEVHNAKTKPREEQYNSTYRVVSVLTVLHQDWLNGKEYKCKVSNKALPSSIEKTISKAKGQPREPQVYTLPPSREEMTKNQVSLTCLVKGFYPSDIAVEWESNGQPENNYKTTPPVLDSDGSFFLYSKLTVDKSRWQQGNVFSCSVMHEALHNQYTQKSLSLSPG
notes: Humanized VHHFc

- EC50 (read off the curve) (DLL3 ECD): ~0.8 nM
B3: Sc16.23 (antibody, V domains shown)
VH: QVTLKESGPGILQPSQTLSLTCSFSGFSLSTSNTGIGWIRQPSGTGLEWLAHIWWNDDKYYNPSLKSRLTISKETSNNQVFLKITNVDTADTASYFCVQIGRDYSNYAWYFDVWGAGTTVTVSS
VL: QIVLTQSPAIMSASPGEKVTLTCSASSSVSSRYLYWYQQKPGSSPKLWIYSTSNLASGVPARFSGSGSGTSYSLIISSMEAEDAASYFCHQWSNYPLTFGAGTKLELK
